Experimental data: patent US9974753B2, “Nanoparticles comprising a vegetable hydrophobic protein and a water miscible non-volatile organic solvent and uses thereof” (BIONANOPLUS, S.L., priority 2012, dated 2018)

Test: Solubility of zein in PG binary solvent mixtures (turbidity change at 405 nm)
Format: physicochemical
Description: The solubility of zein in different binary mixtures of PG and other water miscible non-volatile organic solvents that are miscible with PG was studied. This example studies the incorporation of different surfactants or solvents to enhance the solubility of a molecule in PG, if necessary. For this purpose, turbidity change of PG zein solution was monitored at 405 nm after the addition of different amounts of water, glycerol, Labrasol®, Tween® 80 or Lutrol® L 44 to 5 mL of zein solution in PG (2.5% w/v), at room temperature. The end point zone, at which zein was precipitated from PG solution, was calculated monitoring the turbidity change at 405 nm, that is, the absorbance increase (in percentage) after each solvent/surfactant addition with respect to the initial absorbance value in a spectrophotometer (Labsystems iEMS Reader MF, Finland).

Substance: zein
- End point range of zein precipitation from PG solution (Tween® 80 added to zein 2.5% w/v in PG): 65-75 % (v/v)
- End point range of zein precipitation from PG solution (glycerol added to zein 2.5% w/v in PG): 45-55 % v/v
